Test results as given in patent publication US11472839B2, “Peptide capable of forming a gel for use in tissue engineering and bioprinting” (KING ABDULLAH UNIVERSITY OF SCIENCE AND TECHNOLOGY, priority 2017, dated 2022).
Non-standard residues stand in square brackets, D forms with d. Cha = N[C@@H](CC1CCCCC1)C(=O)O

Key:
[1] = Transmission electron microscopy (TEM) of peptide nanofibers; assay type: physicochemical; conditions: TEM images (13 for IVFK, 10 for IVZK), distribution curve; IVZK shows three types of average diameter, 8.6 nm most abundant, 4.0 nm single monomer fiber
Description: The TEM studies were carried out on two different instruments; Tecnai G2 Spirit Twin with accelerating voltage of 120 kV and FEI Titan G2 80-300 CT with 300 kV emission gun. The Cryo TEM imaging was performed in low dose mode by using FEI's Titan Krios operating at 300 kV. The TEM samples for peptide nanofiber were prepared from diluted peptide hydrogel in water. One drop of this solution was then introduced on a carbon coated copper grid that has been treated with glow discharge plasma before being used. The drop was then kept for 10 minutes before being blotted using filter paper. To get a better contrast, the grid was stained using 2% uranyl acetate for 1 minute and then was dried for at least one day before imaging. The diameter of IVFK and IVZK peptide nanofibers were measured using an image-analysis software ImageJ from 13 and 10 TEM images, respectively. A size distribution histogram for each peptide nanofiber was created in Origin to calculate the average diameter of both peptides. See e.g. FIG. 1B.

[2] = Peptide hydrogel preparation / self-assembly (gelation); assay type: physicochemical; conditions: FIG. 1A
Description: Lyophilized peptides were dissolved in milliQ water and vortexed to get a homogenous solution. Subsequently, 10× phosphate buffered saline at the final concentration of 1× was added to the peptide solution and vortexed shortly. Gelation occurred within few seconds to minutes or hours depending on the peptide sequence.

| Substance | average fiber diameter [1] | self-assembly into hydrogel [2] |
| --- | --- | --- |
| Ac-IVFK-NH2 | 10.3 nm | self-assemble into macromolecular nanofibrous hydrogels |
| Ac-IVOK-NH2 (Ac-IV[Cha]K-NH2; SMILES CC[C@H](C)[C@H](NC(C)=O)C(=O)N[C@H](C(=O)N[C@@H](CC1CCCCC1)C(=O)N[C@@H](CCCCN)C(N)=O)C(C)C) [IVZK, ultrashort self-assembling peptide; Z undefined, probably cyclohexylalanine] | – | self-assemble into macromolecular nanofibrous hydrogels |
